Paper PMC5736629, “Allosteric modulation of protein-protein interactions by individual lipid binding events” (Nature Communications, 2017)

T1: ammonium channel (AmtB) from Escherichia coli (Escherichia coli, UniProt P69681 23-428)
T1 construct: Ammonium channel AmtB, Escherichia coli, wild-type; Expressed as pelB signal peptide - 10x His - MBP - TEV site - AmtB from pET15b; tagless after TEV cleavage; also called ammonia channel; AmtB wild-type; source: E. coli C41(DE3), purified (membranes extracted with octyl glucoside, HisTrap, TEV cleavage, reverse HisTrap); for native MS co-purified with stGlnK (StrepTrap, Superdex 200 Increase); …
T1 sequence: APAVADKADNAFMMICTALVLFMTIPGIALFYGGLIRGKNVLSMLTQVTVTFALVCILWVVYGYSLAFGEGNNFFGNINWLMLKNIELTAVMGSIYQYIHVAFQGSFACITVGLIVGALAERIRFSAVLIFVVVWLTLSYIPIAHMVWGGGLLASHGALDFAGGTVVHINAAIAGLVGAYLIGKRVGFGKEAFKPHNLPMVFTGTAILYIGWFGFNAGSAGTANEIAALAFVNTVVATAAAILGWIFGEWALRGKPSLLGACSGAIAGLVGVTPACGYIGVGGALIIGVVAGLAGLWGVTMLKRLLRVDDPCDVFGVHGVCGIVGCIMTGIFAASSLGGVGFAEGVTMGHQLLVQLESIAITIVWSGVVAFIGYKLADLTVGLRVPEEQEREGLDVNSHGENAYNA

T2: ammonium channel (AmtB) from Escherichia coli, wild-type, tagless (E. coli, UniProt P69681 23-428)
T2 construct: AmtB, ammonium channel, Escherichia coli, wild-type; expressed behind a pelB secretion signal, 10x His-tag, MBP and a TEV site, all removed; also called ammonia channel; source: E. coli C41(DE3), extracted from membranes with octyl glucoside, purified (HisTrap, TEV cleavage, reverse HisTrap); not shown: 10x His-tag, N-terminal, cleaved
T2 sequence: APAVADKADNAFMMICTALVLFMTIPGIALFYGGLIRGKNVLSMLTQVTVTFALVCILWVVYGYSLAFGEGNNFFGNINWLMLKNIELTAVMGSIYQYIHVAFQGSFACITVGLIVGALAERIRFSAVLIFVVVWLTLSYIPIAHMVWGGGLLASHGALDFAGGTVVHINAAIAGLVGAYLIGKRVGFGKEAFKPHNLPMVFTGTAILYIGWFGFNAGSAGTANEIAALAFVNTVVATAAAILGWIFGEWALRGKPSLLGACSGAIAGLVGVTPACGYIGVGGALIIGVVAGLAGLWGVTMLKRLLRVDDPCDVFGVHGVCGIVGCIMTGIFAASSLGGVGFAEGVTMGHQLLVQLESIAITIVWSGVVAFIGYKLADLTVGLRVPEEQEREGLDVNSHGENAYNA


Assays:
Conditions in all cases: both partners purified
[1] = molecular target: T1, ammonium channel (AmtB) from …; test: native MS; AmtB-GlnK at 2 uM titrated with POPA; 200 mM ammonium acetate pH 7.4, 0.5% C8E4, 50 uM ADP, 298 K; global fit of the equilibrium-coupled AmtB-GlnK-lipid binding model; apparent constants
[2] = molecular target: T1, ammonium channel (AmtB) from …; test: native MS; AmtB-GlnK at 2 uM titrated with POPC; 200 mM ammonium acetate pH 7.4, 0.5% C8E4, 50 uM ADP, 298 K; global fit of the equilibrium-coupled AmtB-GlnK-lipid binding model; apparent constants
[3] = molecular target: T1, ammonium channel (AmtB) from …; test: native MS; AmtB-GlnK at 2 uM titrated with POPE; 200 mM ammonium acetate pH 7.4, 0.5% C8E4, 50 uM ADP, 298 K; global fit of the equilibrium-coupled AmtB-GlnK-lipid binding model; apparent constants
[4] = molecular target: T1, ammonium channel (AmtB) from …; test: native MS; AmtB-GlnK at 2 uM titrated with POPG; 200 mM ammonium acetate pH 7.4, 0.5% C8E4, 50 uM ADP, 298 K; global fit of the equilibrium-coupled AmtB-GlnK-lipid binding model; apparent constants
[5] = molecular target: T1, ammonium channel (AmtB) from …; test: native MS; AmtB-GlnK at 2 uM titrated with POPS; 200 mM ammonium acetate pH 7.4, 0.5% C8E4, 50 uM ADP, 298 K; global fit of the equilibrium-coupled AmtB-GlnK-lipid binding model; apparent constants
[6] = molecular target: T1, ammonium channel (AmtB) from …; test: native MS; AmtB-GlnK at 2 uM titrated with DLPG (12:0); 200 mM ammonium acetate pH 7.4, 0.5% C8E4, 50 uM ADP; global fit of the equilibrium-coupled AmtB-GlnK-lipid binding model; apparent constants
[7] = molecular target: T1, ammonium channel (AmtB) from …; test: native MS; AmtB-GlnK at 2 uM titrated with DMPG (14:0); 200 mM ammonium acetate pH 7.4, 0.5% C8E4, 50 uM ADP; global fit of the equilibrium-coupled AmtB-GlnK-lipid binding model; apparent constants
[8] = molecular target: T1, ammonium channel (AmtB) from …; test: native MS; AmtB-GlnK at 2 uM titrated with DPPG (16:0); 200 mM ammonium acetate pH 7.4, 0.5% C8E4, 50 uM ADP; global fit of the equilibrium-coupled AmtB-GlnK-lipid binding model; apparent constants
[9] = molecular target: T1, ammonium channel (AmtB) from …; test: native MS; AmtB-GlnK at 2 uM titrated with DOPE (cis, 18:1); 200 mM ammonium acetate pH 7.4, 0.5% C8E4, 50 uM ADP; global fit of the equilibrium-coupled AmtB-GlnK-lipid binding model; apparent constants
[10] = molecular target: T1, ammonium channel (AmtB) from …; test: native MS; AmtB-GlnK at 2 uM titrated with DOPE (trans, 18:1); 200 mM ammonium acetate pH 7.4, 0.5% C8E4, 50 uM ADP; global fit of the equilibrium-coupled AmtB-GlnK-lipid binding model; apparent constants
[11] = molecular target: T1, ammonium channel (AmtB) from …; test: native MS; AmtB-GlnK at 2 uM titrated with SOPE (18:0-18:1, cis); 200 mM ammonium acetate pH 7.4, 0.5% C8E4, 50 uM ADP; global fit of the equilibrium-coupled AmtB-GlnK-lipid binding model; apparent constants
[12] = molecular target: T1, ammonium channel (AmtB) from …; test: native MS; AmtB-GlnK at 2 uM titrated with TOCDL (cardiolipin); 200 mM ammonium acetate pH 7.4, 0.5% C8E4, 50 uM ADP, 298 K; global fit of the equilibrium-coupled AmtB-GlnK-lipid binding model; apparent constants
[13] = molecular target: T2, ammonium channel (AmtB) from …; test: native MS; ADP titration series; at and above 100 uM ADP (asymptote); AmtB-GlnK 2 uM, 200 mM ammonium acetate pH 7.4, 0.5% C8E4

Row | Kd [1] [nM] | Kd [2] [nM] | Kd [3] [nM] | Kd [4] [nM] | Kd [5] [nM] | Kd [6] [nM] | Kd [7] [nM] | Kd [8] [nM] | Kd [9] [nM] | Kd [10] [nM] | Kd [11] [nM] | Kd [12] [nM] | Kd [13] [nM] | Binder
1 | 517 | 486 | 504 | 540 | 500 | 522 | 551 | 521 | 517 | 556 | 528 | 517 |  | Strep-tag II-tagged GlnK (stGlnK), Y51F (natural protein, Escherichia coli, Nitrogen regulatory protein GlnK, Escherichia coli; Expressed from pET28b; Y51F prevents uridylylation by GlnD; source: E. coli ArcticExpress (DE3) RIL, purified (StrepTrap HP, Superdex 75)) MKLVTVIIKPFKLEDVREALSSIGIQGLTVTEVKGFGRQKGHAELYRGAEFSVNFLPKVKIDVAIADDQLDEVIDIVSKAAYTGKIGDGKIFVAELQRVIRIRTGEADEAAL
2 |  |  |  |  |  |  |  |  |  |  |  |  | ~80 | Strep-tag II-tagged GlnK (stGlnK), Y51F (natural protein, E. coli, GlnK, nitrogen regulatory protein (PII-2), Escherichia coli, with the point mutation Y51F that prevents uridylylation by GlnD; source: E. coli ArcticExpress (DE3) RIL, purified (StrepTrap, Superdex 75)) MKLVTVIIKPFKLEDVREALSSIGIQGLTVTEVKGFGRQKGHAELYRGAEFSVNFLPKVKIDVAIADDQLDEVIDIVSKAAYTGKIGDGKIFVAELQRVIRIRTGEADEAAL
